Reference: US20250171550A1 (NINGBO T MAXIMUM BIOPHARMACEUTICALS, published 2025)
Positions count from the first letter of the chain named. Names may count otherwise.

Legend:
Biotin-BCMA-Fc = biological target: T1, Biotin-BCMA-Fc (human, UniProt Q02223 1-54, labelled with NHS-biotin, sites not stated); assay: flow cytometry of the induced yeast single clone displaying the VHH, Biotin-BCMA-Fc and PE-streptavidin
T1 construct: also called Biotin-BCMA-Fc protein; labeled BCMA-Fc recombinant protein; not shown: Fc part
T1 sequence (looked up): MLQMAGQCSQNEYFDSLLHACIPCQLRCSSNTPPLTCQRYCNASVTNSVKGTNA
Description: After two rounds of magnetic sorting were repeated, a part of the yeast was cultured and subjected to induced expression and flow cytometry assays. Another part was directly applied onto a PAD plate, and single clones were then picked and cultured, and were incubated simultaneously with Biotin-Fc and Biotin-BCMA-Fc 24 h after induced expression, with PE-Streptavidin as a secondary antibody; after incubation, flow cytometry assays were performed, and the results are shown in FIG. 3, where 14 clones are shown to bind to Biotin-BCMA-Fc.

[1] = biological target: T2, BCMA-Fc recombinant protein (human, UniProt Q02223 1-54); assay: SPR, Biacore 8K, CM5 chip; antibody captured by anti-human IgG (Fc), human BCMA protein as analyte (paragraph 147 describes the reverse format)
T2 construct: also called human BCMA protein; BCMA protein; not shown: Fc part
T2 sequence (looked up): T1 sequence (looked up)
Description: The mouse anti-human IgG (Fc) antibody was diluted with the immobilization reagent (sodium acetate, pH 5.0): 950 μL of the immobilization reagent was added to 50 μL of the mouse anti-human IgG (Fc) antibody. The dilution was used for immobilization in eight channels. First, the surface of the CM5 chip was activated for 360 s with EDC and NHS at a flow rate of 10 μL/min. Then, the mouse anti-human IgG (Fc) antibody was injected into the channels (channels 1-8, Fc1,2) at a flow rate of 10 μL/min for about 360 s, with the level of immobilization at about 7000 to 14,000 RU. Finally, the chip was blocked with ethanolamine at 10 μL/min for 420 s.
Human BCMA protein was diluted 2-fold with the running reagent. The diluted human BCMA protein was injected into the experimental channels and the reference channels in sequence at a flow rate of 30 μL/min, and corresponding periods of association and dissociation were allowed. The association and dissociation steps were all performed in the running reagent. After each concentration analysis, the chip needed to be regenerated with magnesium chloride at a flow rate of 20 μL/min for 30 s to wash away the ligand and undissociated analyte. For the next concentration analysis, the experimental channels needed to recapture the same amount of ligand.
A KD value was calculated for each sample using Biacore 8K analysis software Biacore Insight Evaluation Software. The reference channels (Fc1) were used for background subtraction.

B1: C2 (Fc fusion)
VHH-Fc fusion chain: QVQLVESGGGLVQAGGSLRLSCVASGLTFSNYAMGWFRQGPGKDRDFVAAITRSDERQNDGVTYYRVSVKGRFTISRDNANDTVYLQMNSLKPEDTAIYYCAADPSLVFSPTLRYWGQGTLVTVSS
notes: also called single-domain antibody C2
Q: How did the “percent of cells in gate R3” value (Biotin-BCMA-Fc) turn out when B1 was run?
A: Its value is 95.3%.

B2: D10 (Fc fusion)
VHH-Fc fusion chain: B1 VHH-Fc fusion chain with A14P, V23A, L27F, T28S, F29L, S30N, A33V, M34I, G40A, L113P
notes: also called single-domain antibody D10
Q: For B2, which “percent of cells in gate R3” value (Biotin-BCMA-Fc) is on record?
A: The value was 99.8%.

B3: C6 (Fc fusion)
VHH-Fc fusion chain: QVQLVESGGGLVETGSSLRLSCKSSGHSFSDYSLAWFRQAPGKEREFVAAITWSDVPRDDAVTYYRVDVKGRFTISRDNAKNTVYLQMNSLKPEDTAVYYCAVDASLVMTLTPRYWGQGTQVTVSS
notes: also called single-domain antibody C6
Q: For B3, which “percent of cells in gate R3” value (Biotin-BCMA-Fc) is on record?
A: Its value is 93.3%.

B4: humanized single-domain antibody hu4811 (Fc fusion)
chain: QVQLVESGGGLVQPGGSLRLSCAASGHTPSNYAMGWFRQTPGKEREFVAAITWSAVTRDDAIPYYADSVKGRFTISRDNSKNTLYLQMNSLRAEDTAVYYCAVDASLVMTPTPRYWGQGTLVTVSS
notes: Humanized on DP-47 frameworks, original FR2 kept; Fusion partner inferred; not shown: fusion partner
Q: Which Kd [1] does the source give for B4 here?
A: Its Kd is 9.71 nM.

Q: And the koff [1]?
A: The koff was 0.0698 s⁻¹.

Q: What about the kon [1] of the same binder?
A: Its kon is 7.19e+06 M⁻¹ s⁻¹.

B5: humanized single-domain antibody hu4811FGLF (Fc fusion)
chain: B4 chain with T40A, E44G, R45L
notes: FR1, FR3 and FR4 replaced and T45A, E49G, R50L in FR2; Fusion partner inferred; not shown: fusion partner
Q: Which results are given for B5?
A: Kd [1]: 10.2 nM; koff [1]: 0.126 s⁻¹; kon [1]: 1.24e+07 M⁻¹ s⁻¹

B6: single-domain antibody 48-11 (Fc fusion)
chain: B4 chain with P14A, A66R, D67T, S80A, L84V, R92K, A93P, L121Q
notes: Supernatant was used in flow cytometry, Protein A purified material in Biacore; not shown: human IgG1 Fc, ligated in series to the VHH (vector Lenti-hIgG1-Fc2)
Q: Which Kd [1] does the source give for B6 here?
A: The Kd was 0.0379 nM.

Q: And the koff [1]?
A: Its koff is 0.0013 s⁻¹.

Q: What about the kon [1] of the same binder?
A: The kon was 3.42e+07 M⁻¹ s⁻¹.

Q: What about the “percent of cells in gate R3” value (Biotin-BCMA-Fc) of the same binder?
A: The value was 98.4%.

B7: humanized single-domain antibody huD1 (Fc fusion)
chain: QVQLVESGGGLVQPGGSLRLSCAASGRTSTTSVMGWFRQAPGKERRFVAAITRTDDRQNDGITYYADSVKGRFTISRDNSKNTLYLQMNSLRAEDTAVYYCAAHTSLVFTPDPRYWGQGTLVTVSS
notes: Humanized on DP-47 frameworks, original FR2 kept; not shown: fusion partner
Q: What does the source list for B7?
A: Kd [1]: 1.9 nM; koff [1]: 0.0141 s⁻¹; kon [1]: 7.41e+06 M⁻¹ s⁻¹

B8: humanized single-domain antibody huD1FGLF (Fc fusion)
chain: B7 chain with E44G, R45L, R46E
notes: FR1, FR3 and FR4 replaced and FR2 mutated; Fusion partner inferred; also called huDIFGLF; not shown: fusion partner
Q: Which results are given for B8?
A: Kd [1]: 9.25 nM; koff [1]: 0.0579 s⁻¹; kon [1]: 6.26e+06 M⁻¹ s⁻¹

B9: single-domain antibody D1 (Fc fusion)
chain: B7 chain with P14A, A23V, A66G, D67E, S80D, L84V, R92K, A93P, L121P, S125P
notes: not shown: human IgG1 Fc, ligated in series to the VHH (vector Lenti-hIgG1-Fc2)
Q: For B9, which Kd [1] is on record?
A: The Kd was 0.243 nM.

Q: What about the koff [1] of the same binder?
A: The koff was 0.00212 s⁻¹.

Q: What about the kon [1] of the same binder?
A: The kon was 8.73e+06 M⁻¹ s⁻¹.

Q: Does B9 bind (Biotin-BCMA-Fc)?
A: Result: binds
